Measured values taken from patent publication CN113072642A (FUZHOU MAIXIN BIOTECHNOLOGY DEV CO LTD, dated 2021).

Biological target: T1, OCT3/4蛋白 (in tissue sections, immunohistochemistry) (human, UniProt Q01860 1-360, limits assumed)
T1 construct: Endogenous antigen in tumour and normal tissue chips; also called OCT3/4抗原
Assay: immunohistochemistry on tumour tissue chip

T1 sequence (Q01860 whole entry): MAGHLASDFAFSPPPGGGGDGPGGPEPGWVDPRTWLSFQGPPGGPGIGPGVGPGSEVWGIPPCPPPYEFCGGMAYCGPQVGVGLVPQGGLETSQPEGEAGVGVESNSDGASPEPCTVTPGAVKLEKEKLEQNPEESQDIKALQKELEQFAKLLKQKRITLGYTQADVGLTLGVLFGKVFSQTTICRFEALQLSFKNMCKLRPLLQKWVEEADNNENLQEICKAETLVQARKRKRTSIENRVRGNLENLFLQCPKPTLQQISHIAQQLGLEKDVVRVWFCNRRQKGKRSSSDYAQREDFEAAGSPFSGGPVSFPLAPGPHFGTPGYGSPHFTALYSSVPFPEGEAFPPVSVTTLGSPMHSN

binding result: binds
B1: 41B1细胞株所分泌的抗OCT3/4蛋白单克隆抗体 (antibody, mouse IgG2b, V domains shown)
VH: VKLQESGGGLVKPGGSLKLSCTASGFTFSTYAMSWVRQTPEKRLEWVAAINSNGGNTYYPDTVKDRFTISRDNAKNTLYLQMSSLRSDDTALYYCARDGYDYWGQGTTLTVSS
VL: DIVMTQDELSLPVSLGDQASISCRSSQSLVHSNGVTYLFWHLQRPGQSPKLLIYRVSNRFSGVPDRFSGSGSGTDFTLKISRVEAEDLGVYFCFQGTHVPFTFGTGTKLEIK
notes: also called OCT3/4(41B1); 41B1分泌的OCT3/4
